Molecular target: the molecule itself
Experiment: SEC

B1: MBP-Δexon3 NLRP3 + GSGAGG linker (human NLRP3 3-1036, Δ95-134 + linker (GSGAGG)) (natural protein)
chain: MASTRCKLARYLEDLEDVDLKKFKMHLEDYPPQKGCIPLPRGQTEKADHVDLATLMIDFNGEEKAWAMAVWIFAAINRRDLYEKAKRDEPKWGSGAGGDYRKKYRKYVRSRFQCIEDRNARLGESVSLNKRYTRLRLIKEHRSQQEREQELLAIGKTKTCESPVSPIKMELLFDPDDEHSEPVHTVVFQGAAGIGKTILARKMMLDWASGTLYQDRFDYLFYIHCREVSLVTQRSLGDLIMSCCPDPNPPIHKIVRKPSRILFLMDGFDELQGAFDEHIGPLCTDWQKAERGDILLSSLIRKKLLPEASLLITTRPVALEKLQHLLDHPRHVEILGFSEAKRKEYFFKYFSDEAQARAAFSLIQENEVLFTMCFIPLVCWIVCTGLKQQMESGKSLAQTSKTTTAVYVFFLSSLLQPRGGSQEHGLCAHLWGLCSLAADGIWNQKILFEESDLRNHGLQKADVSAFLRMNLFQKEVDCEKFYSFIHMTFQEFFAAMYYLLEEEKEGRTNVPGSRLKLPSRDVTVLLENYGKFEKGYLIFVVRFLFGLVNQERTSYLEKKLSCKISQQIRLELLKWIEVKAKAKKLQIQPSQLELFYCLYEMQEEDFVQRAMDYFPKIEINLSTRMDHMVSSFCIENCHRVESLSLGFLHNMPKEEEEEEKEGRHLDMVQCVLPSSSHAACSHGLVNSHLTSSFCRGLFSVLSTSQSLTELDLSDNSLGDPGMRVLCETLQHPGCNIRRLWLGRCGLSHECCFDISLVLSSNQKLVELDLSDNALGDFGIRLLCVGLKHLLCNLKKLWLVSCCLTSACCQDLASVLSTSHSLTRLYVGENALGDSGVAILCEKAKNPQCNLQKLGLVNSGLTSVCCSALSSVLSTNQNLTHLYLRGNTLGDKGIKLLCEGLLHPDCKLQVLELDNCNLTSHCCWDLSTLLTSSQSLRKLSLGNNDLGDLGVMMFCEVLKQQSCLLQNLGLSEMYFNYETKSALETLQEEKPELTVVFEPSW
binding result: binds
